Data taken from paper PMC5228590 (Journal of bone and mineral research : the official journal …, 2016).

Target: vimentin (mouse (endogenous in MC-3T3 and in …, UniProt P20152 1-466))
Assay: co-IP

Sequence of vimentin (mouse (P20152 whole entry): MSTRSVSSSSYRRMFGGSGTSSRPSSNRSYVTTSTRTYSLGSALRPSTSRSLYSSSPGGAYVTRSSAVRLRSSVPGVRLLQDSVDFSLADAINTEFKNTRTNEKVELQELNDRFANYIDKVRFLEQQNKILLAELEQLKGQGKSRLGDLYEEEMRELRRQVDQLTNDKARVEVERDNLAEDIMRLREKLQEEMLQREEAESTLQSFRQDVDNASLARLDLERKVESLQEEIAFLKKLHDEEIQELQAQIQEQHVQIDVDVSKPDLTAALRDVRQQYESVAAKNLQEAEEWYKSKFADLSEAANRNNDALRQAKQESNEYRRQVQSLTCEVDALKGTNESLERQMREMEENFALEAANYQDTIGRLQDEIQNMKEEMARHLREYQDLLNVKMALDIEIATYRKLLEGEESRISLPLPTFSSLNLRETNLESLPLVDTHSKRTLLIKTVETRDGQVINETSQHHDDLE

fold increase of the association with IGF-I: 3.5 fold
B1: activated PKCζ (phosphorylated on threonine 410) (enzyme, mouse (endogenous in MC-3T3), UniProt Q02956 1-592, looked up)
chain: MPSRTDPKMDRSGGRVRLKAHYGGDILITSVDAMTTFKDLCEEVRDMCGLHQQHPLTLKWVDSEGDPCTVSSQMELEEAFRLVCQGRDEVLIIHVFPSIPEQPGMPCPGEDKSIYRRGARRWRKLYRANGHLFQAKRFNRGAYCGQCSERIWGLSRQGYRCINCKLLVHKRCHVLVPLTCRRHMDSVMPSQEPPVDDKNDGVDLPSEETDGIAYISSSRKHDNIKDDSEDLKPVIDGVDGIKISQGLGLQDFDLIRVIGRGSYAKVLLVRLKKNDQIYAMKVVKKELVHDDEDIDWVQTEKHVFEQASSNPFLVGLHSCFQTTSRLFLVIEYVNGGDLMFHMQRQRKLPEEHARFYAAEICIALNFLHERGIIYRDLKLDNVLLDADGHIKLTDYGMCKEGLGPGDTTSTFCGTPNYIAPEILRGEEYGFSVDWWALGVLMFEMMAGRSPFDIITDNPDMNTEDYLFQVILEKPIRIPRFLSVKASHVLKGFLNKDPKERLGCRPQTGFSDIKSHAFFRSIDWDLLEKKQTLPPFQPQITDDYGLDNFDTQFTSEPVQLTPDDEDVIKRIDQSEFEGFEYINPLLLSAEESV
modifications: phosphothreonine at 410
